In assay [1] the target is mFc (previously reported monomeric IgG1 Fc) L351S;T366R;L368H;P395K (UniProt P01857). The experiment in a line: Bio-layer interferometry (Octet-Red96, Pall ForteBio). The following applies: pH 6.0; 37°C; PBS (composition not stated); PBS adjusted to pH 6.0 or pH 7.4 (same buffer at both pH). In general terms: In BLI a coated tip is dipped into the sample, and binding shifts an interference pattern.

Assay [2] concerns the target 1-D1-15 (Fc mutant, monomer/dimer mixture) T366H; Leu368 unchanged; Leu351 not mutated to Ser; position 395 is Lys or Arg by library design; residues at 409, 428 and 434 not stated in the text (Figure 2B only) (UniProt P01857). The assay is described as above. Particulars: pH 6.0; 37°C; PBS (composition not stated); PBS adjusted to pH 6.0 or pH 7.4 (same buffer at both pH).

For assay [3], the target named is 1-B10-9 (new monomeric IgG1 Fc) T366R;L368H;P395K;K409T;M428L (UniProt P01857). The description is as above. Particulars: pH 6.0; 37°C; PBS (composition not stated); PBS adjusted to pH 6.0 or pH 7.4 (same buffer at both pH).
The target of assay [4] is wild-type IgG1 Fc (dimeric) (UniProt P01857). The assay is described as above. Particulars: pH 6.0; 37°C; PBS (composition not stated); PBS adjusted to pH 6.0 or pH 7.4 (same buffer at both pH).
Assay [5] deals with soluble human neonatal Fc receptor (FcRn) (human) (UniProt P55899). The experiment in a line: BLI; Octet-Red96, biotin-labeled human FcRn on streptavidin tips, Fc proteins 10 to 0.625 µM as analytes, PBS with 0.02% Tween 20, pH 6.0, 37°C, 1:1 model.
The target of the next assay is FcRn (Homo sapiens) (UniProt P55899). The following applies: cited from earlier work.
Sequence of FcRn (Homo sapiens) (P55899 24-365, chain 1 of 2): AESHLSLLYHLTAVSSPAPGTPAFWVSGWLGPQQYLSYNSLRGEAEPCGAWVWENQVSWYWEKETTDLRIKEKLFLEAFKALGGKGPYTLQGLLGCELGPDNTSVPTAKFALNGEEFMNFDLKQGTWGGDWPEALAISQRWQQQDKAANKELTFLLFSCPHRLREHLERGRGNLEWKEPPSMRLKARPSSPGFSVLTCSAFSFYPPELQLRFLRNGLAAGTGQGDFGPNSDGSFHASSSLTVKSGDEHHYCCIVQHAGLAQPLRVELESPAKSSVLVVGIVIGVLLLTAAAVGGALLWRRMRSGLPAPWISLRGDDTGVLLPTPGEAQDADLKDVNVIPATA
Sequence of FcRn (Homo sapiens) (partner, as listed by the source, chain 2 of 2): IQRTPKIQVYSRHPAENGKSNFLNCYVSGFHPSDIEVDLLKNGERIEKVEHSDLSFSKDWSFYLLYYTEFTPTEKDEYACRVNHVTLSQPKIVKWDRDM

Sequence of soluble human neonatal Fc receptor (FcRn) (human) (P55899 24-297, chain 1 of 2): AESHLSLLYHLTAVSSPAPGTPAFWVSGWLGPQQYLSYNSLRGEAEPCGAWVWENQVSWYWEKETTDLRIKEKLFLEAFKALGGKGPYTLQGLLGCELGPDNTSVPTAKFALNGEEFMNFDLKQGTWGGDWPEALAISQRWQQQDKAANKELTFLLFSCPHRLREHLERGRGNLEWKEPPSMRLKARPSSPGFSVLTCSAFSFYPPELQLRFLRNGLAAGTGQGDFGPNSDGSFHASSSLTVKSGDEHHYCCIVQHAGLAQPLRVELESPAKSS
Sequence of soluble human neonatal Fc receptor (FcRn) (human) (P61769 21-119, chain 2 of 2, further chain): as the sequence (partner, as listed by the source, chain 2 of 2) above

For orientation: koff means the rate constant with which the complex falls apart. A word on the kon: it is the second-order rate constant of association. Regarding “neonatal Fc receptor (FcRn), soluble, biotinylated”, the koff in assay [1] is 0.00064 s⁻¹; in assay [3], 0.00056 s⁻¹; in assay [4] it was 0.0003 s⁻¹. Moreover, the kon is 1200 M⁻¹ s⁻¹ in assay [1], 3800 M⁻¹ s⁻¹ in assay [2], 1100 M⁻¹ s⁻¹ in assay [3] and 1100 M⁻¹ s⁻¹ in assay [4].
For orientation: Kd means the concentration at which binding is half-saturated. Turning to “wild-type dimeric IgG1 Fc (domain or fragment)”, in assay [5], the Kd is 0.26 µM, the koff amounted to 0.0003 s⁻¹ and the kon is 1100 M⁻¹ s⁻¹.
As for IgG1 Fc Fc (from UniProt P01857), the Kd with FcRn (Homo sapiens) was 0.11 µM.

The values above are taken from PMC5693891.
